The record followed here is patent US12612465B2, “Formulations comprising PCSK9 specific monoclonal antibodies” (Amgen Inc., priority 2012, dated 2026).

As a reminder, the Kd is the concentration at which binding is half-saturated. Read a high Kd as lower affinity.

The target of one assay is human D374Y PCSK9 (Homo sapiens, UniProt Q8NBP7, D374Y/E620G/G670E/V474I). Nature of the assay: Receptor ligand blocking screen / functional screening of hybridoma antibodies. The assay is classed as binding. How it is done: To screen for the antibodies that block PCSK9 binding to LDLR an assay was developed using the D374Y PCSK9 mutant. […] The following protocol was employed in the receptor ligand blocking screen: Costar 3702 medium binding 384 well plates (Corning Life Sciences) were employed in the screen. The plates were coated with goat anti-LDLR (R&D Cat # AF2148) at 2 μg/ml in 1×PBS/0.05% Azide at a volume of 40 μl/well. The plates were incubated at 4° C. overnight. The plates were then washed using a Titertek plate washer (Titertek, Huntsville, Ala.). A 3-cycle wash was performed. The plates were blocked with 90 μl of 1×PBS/1% milk and incubated approximately 30 minutes at room temperature. The plates were then washed using the Titertek plate washer. A 3-cycle wash was performed. The capture sample was LDLR (R&D, Cat #2148LD/CF), and was added at 0.4 μg/ml in 1×PBS/1% milk/10 mM Ca^2+ at a volume of 40 μl/well. The plates were then incubated for 1 hour and 10 minutes at room temperature. Contemporaneously, 20 ng/ml of biotinylated human D374Y PCSK9 was incubated with 15 micro liters of hybridoma exhaust supernatant in Nunc polypropylene plates and the exhaust supernatant concentration was diluted 1:5. The plates were then pre-incubated for about 1 hour and 30 minutes at room temperature. Next, the plates were washed using the Titertek plate washer operated using a 3-cycle wash. 50 μl/well of the pre-incubated mixture was transferred onto the LDLR coated ELISA plates and incubated for 1 hour at room temperature. To detect LDLR-bound b-PCSK9, 40 μl/well streptavidin HRP at 500 ng/ml in assay diluent was added to the plates. The plates were incubated for 1 hour at room temperature. The plates were again washed using a Titertek plate washer. A 3-cycle wash was performed. Finally, 40 μl/well of One-step TMB (Neogen, Lexington, Ky.) was added to the plate and was quenched with 40 μl/well of 1N hydrochloric acid after 30 minutes at room temperature. OD's were read immediately at 450 nm using a Titertek plate reader.
The receptor ligand assay was then repeated using the mutant enzyme on the 384 member subset of neutralizers identified in the first large scale receptor ligand inhibition assay. The same protocol was employed in the screen of the 384 member blocker subset assay as was done in the large scale receptor ligand blocking screen.
Limiting dilution was used to isolate a manageable number of clones from each line. […] The isolated clones were each expanded in 50-100 ml of hybridoma media and allowed to grow to exhaustion, (i.e., less than about 10% cell viability). The concentration and potency of the antibodies to PCSK9 in the supernatants of those cultures were determined by ELISA and by in vitro functional testing, as described herein.

Assay [1] addresses T1, human PCSK9 (Homo sapiens, UniProt Q8NBP7, E620G/G670E/V474I).
T1 construct: made in house
As to the kind of experiment: BIAcore affinity analysis. The class given is binding. As for the experimental part:
Briefly, the surface plasmon resonance experiments were performed using Biacore 2000 optical biosensors (Biacore, GE Healthcare, Piscataway, N.J.). […] The concentration of PCSK9 protein was varied at 2 fold intervals (the analyte) and was injected over the immobilized antibody surface (at a flow rate of 100 μl/min for 1.5 minutes). […]
The binding signal obtained was proportional to the free PCSK9 in solution.
Antibody binding kinetic parameters including ka (association rate constant), […] (dissociation rate constant), and KD (dissociation equilibrium constant) were determined using the BIA evaluation 3.1 computer program (BIAcore, Inc. Piscataway, N.J.).
On the technique in general: Surface plasmon resonance follows binding to a sensor surface in real time, without labels.

The next assay has as its target T2, PCSK9 protein (Mus musculus, UniProt Q80W65).
T2 construct: endogenous in cells; host or cells: WT C57BL/6 mice, in vivo
As to the kind of experiment: Serum cholesterol and HDL in WT mice, 13 day study. The assay is classed as in vivo. Conditions: 10 mg/kg, repeated 13 day study. An excerpt: Male WT mice (C57BL/6 strain, aged 9-10 weeks, 17-27 g) obtained from Jackson Laboratory (Bar Harbor, Me.) were fed a normal chow (Harland-Teklad, Diet 2918) through out the duration of the experiment. […] Naïve mice were also set aside as naïve control group.
Animals were sacrificed and livers were extracted and prepared as in Example 13.

In assay [2] the target is T1, human PCSK9. Nature of the assay: KinExA affinity analysis. The class given is binding. Conditions: hPCSK9, KinExA. From the text:
Briefly, Reacti-Gel™ (6×) (Pierce) was pre-coated with one of human, V5-tagged cyno or His-tagged mouse PCSK9 proteins and blocked with BSA. […] Equilibrium dissociation constant (KD) were obtained from nonlinear regression of the two sets of competition curves using a one-site homogeneous binding model. The KinExA® Pro software was employed in the analysis.

T1 sequence (Q8NBP7 153-692 V474I/E620G/G670E): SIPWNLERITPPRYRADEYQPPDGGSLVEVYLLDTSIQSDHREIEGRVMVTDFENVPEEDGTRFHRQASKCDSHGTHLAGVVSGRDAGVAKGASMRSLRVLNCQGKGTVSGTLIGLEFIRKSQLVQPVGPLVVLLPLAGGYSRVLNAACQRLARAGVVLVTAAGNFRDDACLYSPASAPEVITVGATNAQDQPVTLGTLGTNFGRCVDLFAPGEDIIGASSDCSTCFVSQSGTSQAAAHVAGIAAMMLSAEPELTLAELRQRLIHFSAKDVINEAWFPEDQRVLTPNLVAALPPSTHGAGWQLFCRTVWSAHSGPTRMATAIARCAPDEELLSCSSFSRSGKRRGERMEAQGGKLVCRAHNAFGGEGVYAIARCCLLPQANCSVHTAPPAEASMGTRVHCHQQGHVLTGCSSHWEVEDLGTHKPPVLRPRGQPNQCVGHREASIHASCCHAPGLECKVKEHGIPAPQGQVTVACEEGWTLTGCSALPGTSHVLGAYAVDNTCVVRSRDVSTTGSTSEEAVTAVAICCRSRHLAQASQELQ
Chain of human D374Y PCSK9 (Q8NBP7 153-692 D374Y/V474I/E620G/G670E): as the sequence (Q8NBP7 153-692 V474I/E620G/G670E) above, with D222Y counted along it
T2 sequence (Q80W65 156-694): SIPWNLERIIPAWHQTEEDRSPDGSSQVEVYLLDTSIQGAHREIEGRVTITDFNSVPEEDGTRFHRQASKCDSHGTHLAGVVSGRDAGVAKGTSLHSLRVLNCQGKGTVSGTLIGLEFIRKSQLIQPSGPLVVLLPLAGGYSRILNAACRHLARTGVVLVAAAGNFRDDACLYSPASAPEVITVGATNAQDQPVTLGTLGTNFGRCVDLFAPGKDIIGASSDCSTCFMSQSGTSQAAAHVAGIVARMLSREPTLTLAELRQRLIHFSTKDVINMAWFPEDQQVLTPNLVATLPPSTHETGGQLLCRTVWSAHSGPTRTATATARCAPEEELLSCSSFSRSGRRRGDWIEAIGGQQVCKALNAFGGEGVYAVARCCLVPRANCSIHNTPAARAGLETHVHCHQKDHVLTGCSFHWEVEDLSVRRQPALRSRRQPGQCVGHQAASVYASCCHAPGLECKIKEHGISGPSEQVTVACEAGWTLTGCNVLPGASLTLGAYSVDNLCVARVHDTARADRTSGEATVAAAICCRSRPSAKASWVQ

B1: 3B6: anti-PCSK9 ABP, light/heavy variable region SEQ ID NO 46/60 (antibody, listed as Homo sapiens, V domains shown)
VH: QVQLVQSGAEVKKPGASVKVSCKASGYTFTSYGISWVRQAPGQGLEWMGWISTYNGNTNYAQKVQGRVTMTTDTSTSTAYMELRSLRSDDTAVYYCARGYTRDYWGQGTLVTVSS
VL: QPVLTQPLFASASLGASVTLTCTLSSGYSSYEVDWYQQRPGKGPRFVMRVDTGGIVGSKGEGIPDRFSVLGSGLNRYLTIKNIQEEDESDYHCGADHGSGTNFVVVFGGGTKLTVL
Turning to B1, the neutralizing ability result with human D374Y PCSK9 was “weak neutralizers”.

B2: 25A7: anti-PCSK9 ABP, light/heavy variable region SEQ ID NO 15/58; neutralizing clone 25A7.3 (antibody, listed as Homo sapiens, V domains shown)
VH: QVQLVQSGAEVKKPGASVKVSCKASGYTFPSYGISWVRQAPGQGLEWMGWISAYNGNTNYAEKLQGRVTMTTDTSTSTAYMEVRSLRSDDTAVFYCARGYVMDVWGQGTTVTVSS
VL: QSALTQPASVSGSPGQSITISCTGTSSDVGRYNSVSWYQHHPGKAPKVMIYEVSNRPSGVSTRFSGSKSGNTASLTISGLQAEDEADYYCSSYTSSSVVFGGGTKLTVL
In the case of B2, the “blocking of PCSK9/LDLR in the functional assays” value with human D374Y PCSK9 (hybridoma clones) is “neutralizing”.

B3: 13H1: anti-PCSK9 ABP, light/heavy variable region SEQ ID NO 28/91 (antibody, listed as Homo sapiens, V domains shown)
VH: QVQLQQSGPGLVKPSQTLSLTCAISGDSVSSNSAAWNWIRQSPSRGLEWLGRTYYRSKWYKNYSVSVKSRITINPDTSKNQFSLQLNSVTPGDTAVYYCARGGPTAAFDYWGQGTLVTVSS
VL: LSALTQPASVSGSPGQSITISCTGTSSDVGNYNLVSWYQQYSGKAPKLMIYEVSKRPSGVSNRFSGSKSGNTASLTISGLQAEDEADYYCCSYAGSSTLVFGGGTKLTVL
As for B3, the neutralizing ability result in the assay with human D374Y PCSK9 is “non-neutralizing”.

B4: 27B2: anti-PCSK9 ABP, light/heavy variable region SEQ ID NO 13/87 (antibody, listed as Homo sapiens, V domains shown)
VH: QVQLQESGPGLVKPSQTLSLTCTVSGGSISSGGYYWSWIRQHPGKGLEWIGYIYNSGSTYYNPSLKSRVTISVDTSKNQFSLKLSSVTAADTAVYYCAREDTAMVPYFDYWGQGTLVTVSS
VL: QSVLTQPPSVSGAPGQRVTISCTGSSSNIGAHYDVHWYQQVPGTAPKLLIYGNTYRPSGVPDRFSGSKSGTSASLAITGLQAEDEADYYCQSYDNSLSGVVFGGGTKLTVL
With B4, the neutralizing ability result in the assay with human D374Y PCSK9 is given as “non-neutralizing”.

B5: 13B5: anti-PCSK9 ABP, light/heavy variable region SEQ ID NO 42/69 (antibody, listed as Homo sapiens, V domains shown)
VH: EVQLLESGGGLVQPGGSLRLSCAASGFTFSSYAMSWVRQAPGKGLEWVSTISGSGGRTYYADSVKGRFTISRDNSKNTLYLQMNSLRAEDTAVYYCAKEVGSPFDYWGQGTLVTVSS
VL: QSVLTQPPSVSAAPGQKVTISCSGSNSNIGNNYVSWYQQLPGTAPKLLIYDNNKRPSGIPDRFSGSNSGTSATLGITGLQTGDEADYYCGTWDSSLSAVVFGGGTKLTVL
Take B5: in the assay with human D374Y PCSK9, the neutralizing ability result was “non-neutralizing”.

B6: 16F12: anti-PCSK9 ABP, light/heavy variable region SEQ ID NO 35/79 (antibody, listed as Homo sapiens, V domains shown)
VH: QVHLVESGGGVVQPGRSLRLSCAASGFTFNSFGMHWVRQAPGKGLEWVALIWSDGSDEYYADSVKGRFTISRDNSKNTLYLQMNSLRAEDTAVYYCARAIAALYYYYGMDVWGQGTTVTVSS
VL: QSVLTQPPSVSAAPGQKVTISCSGSSSNIGNNFVSWYQQLPGTAPKLLIYDYNKRPSGIPDRFSGSKSGTSATLGITGLQTGDEADYYCGTWDSSLSAYVFGTGTRVTVL
As for B6, the Kd in the assay with human PCSK9 [1] (hPCSK9, pH 7.4 (Table 7.1)) came out at 0.47 nM; in the assay with human PCSK9 [1] (pH 6 (pH 6.0 HBS-P buffer, n=1)) it was 0.029 nM; with human PCSK9 [1] (pH 7.4 (Table 7.2)), 0.47 nM; with human PCSK9 [2] it was 0.015 nM. For the same molecule, the Koff amounted to 7.007e-05 s⁻¹ with human PCSK9 [1] (pH 6) and 4.983e-05 s⁻¹ with human PCSK9 [1] (pH 7.4). Moreover, the Kon came out at 2.392e+06 M⁻¹ s⁻¹ in the assay with human PCSK9 [1] (pH 6) and 106400 M⁻¹ s⁻¹ in the assay with human PCSK9 [1] (pH 7.4). In addition, in the assay with PCSK9 protein, the “total serum cholesterol after a single dose” value was “significant and substantial decreases in total serum cholesterol”.
